Where a chain is given by its changes, count along the chain named. Names may count otherwise. “And” between values parts separate entries of the source, which are not always exact repeats. Identical values can stand only once.

The labels stand for the following.
B1: KB001 mouse Fab VL T24M (Fab, V domains shown)
VH: EVQLKQSGPGLVAPSQSLSITCTVSGFSLSIYSVHWVRQPPGKGLEWLGMIWGGGSSDYNSALKSRLSISKDNSKSQVFLKMNSLQTDDTAMYYCARNGNFYAMDYWGQGTSVTVSS
VL: QIVLTQSPAIMSASLGERVTMTCMASSSVSSSFLHWYQQKPGSSPQLWIYSTSNLASGVPARFSGSGSGTSYSLTISSMEAEDAATYYCHQYHHSPYIYTFGGGTKLEIK
B2: KB001 mouse Fab VL A25T (Fab, V domains shown)
VH: B1 VH
VL: B1 VL with M24T, A25T
B3: KB001 mouse Fab VL S53N (Fab, V domains shown)
VH: B1 VH
VL: B1 VL with M24T, S53N
B4: KB001 mouse Fab VL S57N (Fab, V domains shown)
VH: B1 VH
VL: B1 VL with M24T, S57N
B5: KB001 mouse Fab VL S53H (Fab, V domains shown)
VH: B1 VH
VL: B1 VL with M24T, S53H
B6: KB001 mouse Fab VL N54S (Fab, V domains shown)
VH: B1 VH
VL: B1 VL with M24T, N54S
B7: KB001 mouse Fab VL S28K (Fab, V domains shown)
VH: B1 VH
VL: B1 VL with M24T, S28K
B8: KB001 mouse Fab VL S27K (Fab, V domains shown)
VH: B1 VH
VL: B1 VL with M24T, S27K
B9: KB001 mouse Fab VL L55P (Fab, V domains shown)
VH: B1 VH
VL: B1 VL with M24T, L55P
B10: KB001 mouse Fab VL T24H (Fab, V domains shown)
VH: B1 VH
VL: B1 VL with M24H
B11: KB001 mouse Fab VL N54R (Fab, V domains shown)
VH: B1 VH
VL: B1 VL with M24T, N54R
B12: KB001 mouse Fab VL S31P (Fab, V domains shown)
VH: B1 VH
VL: B1 VL with M24T, S31P
B13: KB001 mouse Fab VL S30G (Fab, V domains shown)
VH: B1 VH
VL: B1 VL with M24T, S30G
B14: KB001 mouse Fab VL S28W (Fab, V domains shown)
VH: B1 VH
VL: B1 VL with M24T, S28W
B15: KB001 mouse Fab VL A25F (Fab, V domains shown)
VH: B1 VH
VL: B1 VL with M24T, A25F
B16: KB001 mouse Fab VL S26N (Fab, V domains shown)
VH: B1 VH
VL: B1 VL with M24T, S26N
B17: KB001 mouse Fab VL S31T (Fab, V domains shown)
VH: B1 VH
VL: B1 VL with M24T, S31T
B18: KB001 mouse Fab VL S31F (Fab, V domains shown)
VH: B1 VH
VL: B1 VL with M24T, S31F
B19: KB001 mouse Fab VL T52A (Fab, V domains shown)
VH: B1 VH
VL: B1 VL with M24T, T52A
B20: KB001 mouse Fab VL N54Q (Fab, V domains shown)
VH: B1 VH
VL: B1 VL with M24T, N54Q
B21: KB001 mouse Fab VL T24K (Fab, V domains shown)
VH: B1 VH
VL: B1 VL with M24K
B22: KB001 mouse Fab VL S53K (Fab, V domains shown)
VH: B1 VH
VL: B1 VL with M24T, S53K
B23: KB001 mouse Fab VL S28G (Fab, V domains shown)
VH: B1 VH
VL: B1 VL with M24T, S28G
B24: KB001 mouse Fab VL S30F (Fab, V domains shown)
VH: B1 VH
VL: B1 VL with M24T, S30F
B25: KB001 mouse Fab VL T24E (Fab, V domains shown)
VH: B1 VH
VL: B1 VL with M24E
B26: KB001 mouse Fab VL S28V (Fab, V domains shown)
VH: B1 VH
VL: B1 VL with M24T, S28V
B27: KB001 mouse Fab VL S31Y (Fab, V domains shown)
VH: B1 VH
VL: B1 VL with M24T, S31Y
B28: KB001 mouse Fab VL S28P (Fab, V domains shown)
VH: B1 VH
VL: B1 VL with M24T, S28P
B29: KB001 mouse Fab VL S57E (Fab, V domains shown)
VH: B1 VH
VL: B1 VL with M24T, S57E
B30: KB001 mouse Fab VL S53Q (Fab, V domains shown)
VH: B1 VH
VL: B1 VL with M24T, S53Q
B31: KB001 mouse Fab VL L55N (Fab, V domains shown)
VH: B1 VH
VL: B1 VL with M24T, L55N
B32: KB001 mouse Fab VL S26D (Fab, V domains shown)
VH: B1 VH
VL: B1 VL with M24T, S26D
B33: KB001 mouse Fab VL S31E (Fab, V domains shown)
VH: B1 VH
VL: B1 VL with M24T, S31E
B34: KB001 mouse Fab VL T52S (Fab, V domains shown)
VH: B1 VH
VL: B1 VL with M24T, T52S
B35: KB001 mouse Fab VL S57T (Fab, V domains shown)
VH: B1 VH
VL: B1 VL with M24T, S57T
B36: KB001 mouse Fab VL S57R (Fab, V domains shown)
VH: B1 VH
VL: B1 VL with M24T, S57R
B37: KB001 mouse Fab VL S51G (Fab, V domains shown)
VH: B1 VH
VL: B1 VL with M24T, S51G

The test deals with HRgpA-6H (Porphyromonas gingivalis) (UniProt P28784). The test is described as follows: ELISA, FASEBA Fab on coated HRgpA-6H. On the technique in general: ELISA stands for enzyme-linked immunosorbent assay.
Chain of UniProt P28784 (P28784 228-991): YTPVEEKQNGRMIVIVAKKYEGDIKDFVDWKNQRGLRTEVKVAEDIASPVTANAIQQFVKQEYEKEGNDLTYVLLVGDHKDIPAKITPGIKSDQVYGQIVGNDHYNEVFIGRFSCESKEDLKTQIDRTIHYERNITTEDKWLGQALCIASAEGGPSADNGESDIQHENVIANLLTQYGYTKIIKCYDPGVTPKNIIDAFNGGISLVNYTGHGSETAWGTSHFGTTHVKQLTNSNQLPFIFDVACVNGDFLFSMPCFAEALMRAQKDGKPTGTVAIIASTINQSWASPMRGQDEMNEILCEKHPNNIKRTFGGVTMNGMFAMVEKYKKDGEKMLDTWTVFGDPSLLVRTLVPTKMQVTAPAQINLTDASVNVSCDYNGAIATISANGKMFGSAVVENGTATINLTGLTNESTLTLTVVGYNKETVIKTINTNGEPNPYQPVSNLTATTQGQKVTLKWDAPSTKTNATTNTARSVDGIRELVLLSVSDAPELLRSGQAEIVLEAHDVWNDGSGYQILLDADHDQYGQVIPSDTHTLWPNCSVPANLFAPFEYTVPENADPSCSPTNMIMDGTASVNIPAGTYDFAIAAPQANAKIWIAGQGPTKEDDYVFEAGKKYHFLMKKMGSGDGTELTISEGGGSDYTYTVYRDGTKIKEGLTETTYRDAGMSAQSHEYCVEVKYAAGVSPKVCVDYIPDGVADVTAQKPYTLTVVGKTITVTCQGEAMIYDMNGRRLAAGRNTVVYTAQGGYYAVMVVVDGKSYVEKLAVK
As to B1, the OD450nm is 0.797 and 0.75; the Ratio OD(Variant)/OD(WT) is 1.04 and 0.975.

For the molecule B2, the OD450nm was 0.823 and 0.801; the Ratio OD(Variant)/OD(WT) is 1.05 and 1.02.

Turning to B3, the OD450nm is 0.838 and 0.707; the Ratio OD(Variant)/OD(WT) is 1.06 and 0.898.

As to B4, the OD450nm was determined as 0.857 and the Ratio OD(Variant)/OD(WT) was found to be 1.05.

Take B5: the OD450nm is 0.827 and 0.777; the Ratio OD(Variant)/OD(WT) was 1.05 and 0.987.

As for B6, the OD450nm is 0.835 and 0.732 and 0.776; the Ratio OD(Variant)/OD(WT) is 1.07 and 0.934 and 0.99.

B7: the OD450nm worked out at 0.801 and the Ratio OD(Variant)/OD(WT) worked out at 1.07.

As to B8, the OD450nm is 0.783 and 0.745 and 0.697; the Ratio OD(Variant)/OD(WT) is 1.04 and 0.993 and 0.929.

For the molecule B9, the OD450nm is 0.827 and 0.764 and 0.724; the Ratio OD(Variant)/OD(WT) was 1.06 and 0.975 and 0.924.

For the molecule B10, the OD450nm is 0.795 and the Ratio OD(Variant)/OD(WT) worked out at 1.03.

As to B11, the OD450nm came to 0.876 and the Ratio OD(Variant)/OD(WT) turned out to be 1.12.

B12: the OD450nm is 0.87 and 0.875 and 0.856; the Ratio OD(Variant)/OD(WT) is 1.03 and 1.04 and 1.01.

For B13, the OD450nm was 0.916 and 0.858; the Ratio OD(Variant)/OD(WT) is 1.06 and 0.995.

For B14, the OD450nm was 0.817 and 0.745; the Ratio OD(Variant)/OD(WT) was 1.09 and 0.993.

Regarding B15, the OD450nm was 0.818 and 0.827 and 0.775; the Ratio OD(Variant)/OD(WT) is 1.04 and 1.06 and 0.99.

As for B16, the OD450nm is 0.823 and 0.749; the Ratio OD(Variant)/OD(WT) is 1.05 and 0.957.

As to B17, the OD450nm was 0.859 and 0.74 and 0.782; the Ratio OD(Variant)/OD(WT) is 1.02 and 0.876 and 0.925.

For the molecule B18, the OD450nm was 0.854 and 0.688 and 0.693; the Ratio OD(Variant)/OD(WT) was 1.01 and 0.814 and 0.82.

On to B19, for which the Ratio OD(Variant)/OD(WT) was 1.17 and 1.08 (2×) and 0.993.

On to B20, for which the OD450nm turned out to be 0.868 and the Ratio OD(Variant)/OD(WT) amounted to 1.11.

Regarding B21, the OD450nm was 0.797 and 0.734; the Ratio OD(Variant)/OD(WT) is 1.04 and 0.954.

For the molecule B22, the OD450nm was determined as 0.841 and the Ratio OD(Variant)/OD(WT) turned out to be 1.07.

Consider B23, for which the OD450nm was determined as 0.818 and the Ratio OD(Variant)/OD(WT) was determined as 1.09.

For B24, the OD450nm was 0.911 and the Ratio OD(Variant)/OD(WT) was 1.06.

As for B25, the OD450nm is 0.852 and 0.81; the Ratio OD(Variant)/OD(WT) is 1.11 and 1.05.

B26: the OD450nm is 0.786 and 0.731 and 0.717; the Ratio OD(Variant)/OD(WT) is 1.05 and 0.974 and 0.955.

Take B27: the OD450nm worked out at 0.849 and the Ratio OD(Variant)/OD(WT) came out at 1.

B28: the OD450nm was 0.808 and 0.726; the Ratio OD(Variant)/OD(WT) is 1.08 and 0.967.

Consider B29, for which the OD450nm stood at 0.843 and the Ratio OD(Variant)/OD(WT) amounted to 1.03.

Turning to B30, the OD450nm is 0.835 and 0.751 and 0.726; the Ratio OD(Variant)/OD(WT) is 1.06 and 0.954 and 0.922.

On to B31, for which the OD450nm was 0.816 and 0.815 and 0.777; the Ratio OD(Variant)/OD(WT) is 1.04 (2×) and 0.992.

For the molecule B32, the OD450nm is 0.821 and the Ratio OD(Variant)/OD(WT) came out at 1.05.

Consider B33, for which the OD450nm was 0.903 and 0.798; the Ratio OD(Variant)/OD(WT) is 1.07 and 0.944.

With B34, the OD450nm was determined as 0.833 and the Ratio OD(Variant)/OD(WT) stood at 1.06.

On to B35, for which the OD450nm was 0.843 and the Ratio OD(Variant)/OD(WT) worked out at 1.03.

B36: the OD450nm is 0.845 and 0.849; the Ratio OD(Variant)/OD(WT) was 1.04.

B37: the OD450nm was 0.915 and 0.777 and 0.851; the Ratio OD(Variant)/OD(WT) is 1.05 and 0.888 and 0.973.

The values above are taken from US20230365662A1.
